For assay [1], the target named is truncated human CD163 ECD SRCR domain 1-5 fragment with C-terminus histidine tag (human) (UniProt Q86VB7). The assay is described as follows: ratio of EC50 on huCD163 SRCR 1-5 to EC50 on huCD163 ECD.
Assay [2] has as its target recombinant murine CD163 (R&D Systems, No. 7435-CD-050) (murine) (UniProt Q2VLH6). The assay is described as follows: ELISA on plate-coated recombinant murine CD163 (5 ug/mL).

truncated human CD163 ECD SRCR domain 1-5 fragment with C-terminus histidine tag (human), sequence (Q86VB7 42-578 limits assumed): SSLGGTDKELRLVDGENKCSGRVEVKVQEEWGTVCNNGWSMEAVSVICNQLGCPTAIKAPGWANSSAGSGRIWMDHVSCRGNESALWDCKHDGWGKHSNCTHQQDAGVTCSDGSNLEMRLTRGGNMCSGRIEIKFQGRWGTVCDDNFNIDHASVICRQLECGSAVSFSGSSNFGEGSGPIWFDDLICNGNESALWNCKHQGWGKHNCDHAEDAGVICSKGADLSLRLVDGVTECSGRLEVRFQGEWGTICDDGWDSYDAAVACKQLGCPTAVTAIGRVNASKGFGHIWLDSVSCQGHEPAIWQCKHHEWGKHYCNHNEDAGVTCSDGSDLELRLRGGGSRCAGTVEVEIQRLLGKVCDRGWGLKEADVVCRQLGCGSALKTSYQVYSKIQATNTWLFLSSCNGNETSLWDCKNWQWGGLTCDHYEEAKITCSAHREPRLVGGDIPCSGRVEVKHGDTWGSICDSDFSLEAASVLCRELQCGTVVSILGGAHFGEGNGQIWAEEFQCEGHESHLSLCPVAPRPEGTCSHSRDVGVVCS
recombinant murine CD163 (R&D Systems, No. 7435-CD-050) (murine), sequence (Q2VLH6 39-1045 limits assumed): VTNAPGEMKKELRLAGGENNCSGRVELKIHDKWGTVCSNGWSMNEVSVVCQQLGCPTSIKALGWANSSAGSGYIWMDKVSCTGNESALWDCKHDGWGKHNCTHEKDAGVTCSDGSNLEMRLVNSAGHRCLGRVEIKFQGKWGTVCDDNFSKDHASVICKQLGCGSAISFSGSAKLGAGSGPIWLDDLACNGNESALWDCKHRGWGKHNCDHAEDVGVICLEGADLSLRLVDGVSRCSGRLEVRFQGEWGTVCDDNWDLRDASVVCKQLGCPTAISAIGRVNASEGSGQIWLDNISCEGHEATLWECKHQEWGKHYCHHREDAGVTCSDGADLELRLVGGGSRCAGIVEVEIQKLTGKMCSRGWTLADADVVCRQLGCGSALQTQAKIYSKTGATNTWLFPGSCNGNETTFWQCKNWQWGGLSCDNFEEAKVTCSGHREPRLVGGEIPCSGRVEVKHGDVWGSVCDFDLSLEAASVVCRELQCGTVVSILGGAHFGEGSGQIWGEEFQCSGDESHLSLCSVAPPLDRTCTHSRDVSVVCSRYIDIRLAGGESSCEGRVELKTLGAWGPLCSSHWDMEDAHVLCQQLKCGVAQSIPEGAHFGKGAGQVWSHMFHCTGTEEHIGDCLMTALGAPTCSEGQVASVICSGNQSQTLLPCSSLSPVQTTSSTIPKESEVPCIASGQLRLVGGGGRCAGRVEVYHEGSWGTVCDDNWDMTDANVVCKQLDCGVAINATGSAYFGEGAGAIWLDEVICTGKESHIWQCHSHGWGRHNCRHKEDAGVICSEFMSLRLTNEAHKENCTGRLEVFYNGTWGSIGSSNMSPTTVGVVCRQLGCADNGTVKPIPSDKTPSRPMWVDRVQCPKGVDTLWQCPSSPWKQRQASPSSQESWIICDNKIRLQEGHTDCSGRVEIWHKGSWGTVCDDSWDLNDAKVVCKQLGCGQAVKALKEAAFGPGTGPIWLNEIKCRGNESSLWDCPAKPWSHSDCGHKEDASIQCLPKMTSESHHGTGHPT

With 215927 (antibody), the Ratio SRCR 1-5/ECD in assay [1] is 1.17.
Still for that read-out and setting: then EDHu-1 (antibody), with 0.96.
For “commercially available rat anti-muCD163 antibody (Thermo Fisher Scientific #14-1631-82)”, the EC50 (read off the curve) in assay [2] came out at 0.03 nM.

The record behind these values is patent publication US20220289861A1.
